Assay results taken from PMC7720148.

Legend:
Experiment in all cases: single-molecule force spectroscopy
[1] = target: 12-mer array with 50% H3K27M mutant copies of H3 (human) (UniProt P04908)
[2] = target: unmodified nucleosome (human histone octamer on 601 DNA) in nucleosome arrays (human) (UniProt P04908)
[3] = target: H3K27M mutant nucleosome (100% H3K27M 12-mer array) (human) (UniProt P04908)
[4] = target: 12-mer array with an equimolar mixture of unmodified and H3K27me3-containing nucleosomes (UniProt P04908)

| average transition force (all clusters), with SAM [1] [pN] | average C3 transition force, with SAM [2] [pN] | average C4 transition force, with SAM [2] [pN] | average rupture force of C3 transitions (adjacent nucleosome pair) [2] [pN] | average transition force (all clusters) [2] [pN] | average transition force (all clusters), with SAM [2] [pN] | average C3 transition force, with SAM [3] [pN] | average C4 transition force, with SAM [3] [pN] | average transition force (all clusters), with SAM [3] [pN] | average rupture force of C3 transitions [4] [pN] | average rupture force of C4 transitions [4] [pN] | Substance |
| --- | --- | --- | --- | --- | --- | --- | --- | --- | --- | --- | --- |
| 18.3 | 17.8 | 19.8 | 16.3 | 17 | 17.8 | 19.6 | 26.1 | 19.6 | 14.6 | 16.9 | Polycomb repressive complex 2 (PRC2) core complex (from UniProt Q15910;O75530;Q09028;Q15022) |
|  |  |  |  | 14.5 |  |  |  |  |  |  | PRC2–AEBP2 complex (from UniProt Q15910;O75530;Q09028;Q15022;Q6ZN18) |
